Values quoted from earlier work as cited in paper PMC5501900.

Biological target: Vinculin tail tail (Homo sapiens) (UniProt P18206)

Substance: Vinculin head head (from UniProt P18206)
- Kd: < 1 nM
